In the supplement of paper PMC9732359:
± gives the uncertainty stated by the source.

Assay: protein stability index of a GFP-peptide fusion (yeast GPS) (PSI 1-4); higher = more stable; sorted into four equal gates, so the index is relative within each strain
Procedure, shortened: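 The protein stability index of a peptide was calculated by multiplying its read frequency in each gate by that gate's number and adding the products. The peptides were tiled 17-residue stretches of yeast proteins, fused downstream of GFP on a Cherry-expressing plasmid and carried in yeast as a pooled library. Mid-log cultures in leucine-free medium were sorted into four equal gates by GFP/Cherry ratio, and each gate's plasmids were PCR-amplified and Illumina-sequenced.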

GLLDESPNRLRVRTDDS [YML031W/NDC1]
protein stability index (doa10∆): 1.5 ± 0.098
protein stability index (pdr5∆): 1.82 ± 0.15
protein stability index (san1∆): 1.67 ± 0.12
protein stability index (ubr1∆): 1.64 ± 0.051

GMKVKADRDESSPYAAM [RPS14B]
protein stability index (doa10∆): 1.32 ± 0.067
protein stability index (pdr5∆): 1.09 ± 0.12
protein stability index (san1∆): 1.14 ± 0.22
protein stability index (ubr1∆): 1.2 ± 0.089

GMMSTTGTARLNSMPNN [YJL039C/NUP192]
protein stability index (pdr5∆): 2.99 ± 0.15
protein stability index (san1∆): 3.1 ± 0.089
protein stability index (ubr1∆): 3.22 ± 0.11

GMPHKFYQGKTGVVYNV [RPL21A]
protein stability index (doa10∆): 2.84 ± 0.088
protein stability index (pdr5∆): 2.86 ± 0.077
protein stability index (san1∆): 2.53 ± 0.078
protein stability index (ubr1∆): 2.61 ± 0.067

GNASLKYIALQVIVDIF [YCG1]
protein stability index (doa10∆): 1.2 ± 0.069
protein stability index (pdr5∆): 1.36 ± 0.076
protein stability index (san1∆): 1.19 ± 0.12
protein stability index (ubr1∆): 1.54 ± 0.15

GNDNNSDSNANAAVAGV [SWI3]
protein stability index (doa10∆): 3.21 ± 0.057
protein stability index (pdr5∆): 3.35 ± 0.056
protein stability index (san1∆): 3.31 ± 0.029
protein stability index (ubr1∆): 3.18 ± 0.058

GNGNVSESDIINNLPPE [YCG1]
protein stability index (doa10∆): 2.85 ± 0.24
protein stability index (pdr5∆): 2.85 ± 0.13
protein stability index (san1∆): 2.95 ± 0.27
protein stability index (ubr1∆): 2.78 ± 0.15

GNIQISEYNFLEGSVSL [DIS3]
protein stability index (doa10∆): 2.74 ± 0.097
protein stability index (pdr5∆): 3.08 ± 0.091
protein stability index (san1∆): 3.05 ± 0.09
protein stability index (ubr1∆): 2.89 ± 0.072

GNKKYRALRIETGNFSW [RPS8A]
protein stability index (doa10∆): 2.87 ± 0.038
protein stability index (pdr5∆): 3.15 ± 0.044
protein stability index (san1∆): 3.14 ± 0.036
protein stability index (ubr1∆): 2.85 ± 0.03

GNMGITTEMLDKLMVTS [MED6]
protein stability index (doa10∆): 3.36 ± 0.1
protein stability index (pdr5∆): 3.55 ± 0.1
protein stability index (san1∆): 3.26 ± 0.068
protein stability index (ubr1∆): 3.07 ± 0.11

GNPLSIGTLEEIIDDDH [RPT2]
protein stability index (doa10∆): 3.28 ± 0.1
protein stability index (pdr5∆): 3.43 ± 0.14
protein stability index (san1∆): 3.14 ± 0.076
protein stability index (ubr1∆): 3.24 ± 0.17

GNVFSPIDNNIIFASTK [SNU114]
protein stability index (doa10∆): 3.16 ± 0.062
protein stability index (pdr5∆): 2.97 ± 0.092
protein stability index (san1∆): 2.97 ± 0.052
protein stability index (ubr1∆): 2.95 ± 0.046

GNVLLNATVVDSFKYEP [YLR335W/NUP2]
protein stability index (doa10∆): 2.92 ± 0.074
protein stability index (pdr5∆): 3.02 ± 0.1
protein stability index (san1∆): 3.05 ± 0.081
protein stability index (ubr1∆): 2.62 ± 0.17

GNVTELYGTAIGARSQG [PRE5]
protein stability index (doa10∆): 2.11 ± 0.08
protein stability index (pdr5∆): 2.09 ± 0.15
protein stability index (san1∆): 1.94 ± 0.071
protein stability index (ubr1∆): 1.31 ± 0.044

GPGGQAALRALARSGLR [RPS14B]
protein stability index (doa10∆): 2.41 ± 0.081
protein stability index (pdr5∆): 2.59 ± 0.11
protein stability index (san1∆): 2.22 ± 0.11
protein stability index (ubr1∆): 2.48 ± 0.085

GPKKNVFYAPNVKNYST [RPC34]
protein stability index (doa10∆): 2.69 ± 0.072
protein stability index (pdr5∆): 2.56 ± 0.059
protein stability index (san1∆): 2.91 ± 0.056
protein stability index (ubr1∆): 2.49 ± 0.044

GPRNTEEKGWVPVTKLG [RPS2]
protein stability index (doa10∆): 3.55 ± 0.1
protein stability index (pdr5∆): 3.46 ± 0.1
protein stability index (san1∆): 3.61 ± 0.05
protein stability index (ubr1∆): 3.67 ± 0.082

GPVAAQFTKVIDEPIKS [FAS1]
protein stability index (doa10∆): 1.8 ± 0.2
protein stability index (pdr5∆): 2.41 ± 0.092
protein stability index (san1∆): 2.15 ± 0.14
protein stability index (ubr1∆): 2 ± 0.052

GPVVAGINSKSGKPFIA [PUP3]
protein stability index (doa10∆): 3.18 ± 0.13
protein stability index (pdr5∆): 3.27 ± 0.11
protein stability index (san1∆): 2.99 ± 0.18
protein stability index (ubr1∆): 3.05 ± 0.11

GQCRTELEGSFNKSAEL [YCS4]
protein stability index (doa10∆): 3.04 ± 0.09
protein stability index (pdr5∆): 2.51 ± 0.095
protein stability index (san1∆): 2.6 ± 0.1
protein stability index (ubr1∆): 2.9 ± 0.081

GQLLSVKFLVYQGVYSM [YML031W/NDC1]
protein stability index (doa10∆): 1.61 ± 0.084
protein stability index (pdr5∆): 1.75 ± 0.14
protein stability index (san1∆): 1.48 ± 0.11
protein stability index (ubr1∆): 1.98 ± 0.11

GQNCLDIDGIMDNPRKL [SNU114]
protein stability index (pdr5∆): 3.43 ± 0.27
protein stability index (san1∆): 3.4 ± 0.092
protein stability index (ubr1∆): 3.81 ± 0.27

GQRDLDRIAAQTLEEDE [RPS19A]
protein stability index (doa10∆): 3.21 ± 0.087
protein stability index (pdr5∆): 3.21 ± 0.091
protein stability index (san1∆): 3.29 ± 0.1
protein stability index (ubr1∆): 3.23 ± 0.097

GQSEASLLNLLNISPFT [RPP0]
protein stability index (doa10∆): 2.59 ± 0.066
protein stability index (pdr5∆): 2.1 ± 0.057
protein stability index (san1∆): 2.29 ± 0.085
protein stability index (ubr1∆): 2.66 ± 0.058

GRAGVPMEVMGLMLGEF [RPN11]
protein stability index (doa10∆): 1.25 ± 0.17
protein stability index (pdr5∆): 2.12 ± 0.26
protein stability index (san1∆): 1.69 ± 0.18

GRLLRAMFEICLKRGWG [BRR2]
protein stability index (doa10∆): 1.75 ± 0.11
protein stability index (pdr5∆): 1.59 ± 0.091
protein stability index (san1∆): 1.76 ± 0.12
protein stability index (ubr1∆): 1.81 ± 0.077

GRLNTLVISLAATNETF [IRR1]
protein stability index (doa10∆): 1.64 ± 0.088
protein stability index (pdr5∆): 1.38 ± 0.065
protein stability index (san1∆): 1.1 ± 0.23
protein stability index (ubr1∆): 1.17 ± 0.06

GRLSLRSLTAYAPNLML [QCR10]
protein stability index (doa10∆): 1.26 ± 0.041
protein stability index (pdr5∆): 1.9 ± 0.051
protein stability index (san1∆): 1.63 ± 0.081
protein stability index (ubr1∆): 1.42 ± 0.06

GRRLNIRQYALATAHIY [SSN8]
protein stability index (doa10∆): 1.53 ± 0.055
protein stability index (pdr5∆): 1.32 ± 0.057
protein stability index (san1∆): 1.17 ± 0.17
protein stability index (ubr1∆): 1.09 ± 0.067

GRSDSNTEEKAELQSNL [YGL100W/SEH1]
protein stability index (doa10∆): 1.61 ± 0.037
protein stability index (pdr5∆): 1.64 ± 0.051
protein stability index (san1∆): 1.4 ± 0.14
protein stability index (ubr1∆): 1.52 ± 0.039

GRSRDGGLRFGEMERDC [RPB2]
protein stability index (doa10∆): 2.86 ± 0.29
protein stability index (san1∆): 2.83 ± 0.17

GRVKYTKRQKHFAWLPT [POP1]
protein stability index (doa10∆): 2.27 ± 0.051
protein stability index (pdr5∆): 2.48 ± 0.081
protein stability index (san1∆): 2.3 ± 0.084
protein stability index (ubr1∆): 2.55 ± 0.039

GRYAGKKVVIVKPHDEG [RPL27A]
protein stability index (doa10∆): 3.25 ± 0.25
protein stability index (pdr5∆): 2.72 ± 0.21
protein stability index (ubr1∆): 2.29 ± 0.26

GSEILGDLKLQVLLDEE [RPO21]
protein stability index (doa10∆): 3.25 ± 0.12
protein stability index (pdr5∆): 3.35 ± 0.13
protein stability index (san1∆): 3.04 ± 0.14
protein stability index (ubr1∆): 3.28 ± 0.1

GSFKVVKGTNISEKDLV [RPO31]
protein stability index (doa10∆): 2.6 ± 0.27
protein stability index (pdr5∆): 3.36 ± 0.14
protein stability index (san1∆): 3.51 ± 0.044
protein stability index (ubr1∆): 3.5 ± 0.089

GSIPSLTTQFVTDKYTA [YDL088C/ASM4]
protein stability index (doa10∆): 2.54 ± 0.08
protein stability index (pdr5∆): 2.54 ± 0.066
protein stability index (san1∆): 2.46 ± 0.087
protein stability index (ubr1∆): 2.58 ± 0.079

GSKENYQELGSLQSSSQ [MED2]
protein stability index (doa10∆): 3.16 ± 0.15
protein stability index (pdr5∆): 3.45 ± 0.098
protein stability index (san1∆): 3.27 ± 0.071
protein stability index (ubr1∆): 3.12 ± 0.093

GSKIRVMWGKVTRTHGN [RPL33A]
protein stability index (doa10∆): 3.09 ± 0.075
protein stability index (pdr5∆): 2.9 ± 0.076
protein stability index (san1∆): 2.76 ± 0.062
protein stability index (ubr1∆): 2.78 ± 0.054

GSNNAQTSRGLFGNNNT [YGL172W/NUP49]
protein stability index (doa10∆): 3.24 ± 0.087
protein stability index (pdr5∆): 3.25 ± 0.074
protein stability index (san1∆): 3.14 ± 0.046
protein stability index (ubr1∆): 3.16 ± 0.1

GSQKTFEIDDEHRIRVF [RPS6A]
protein stability index (doa10∆): 1.75 ± 0.089
protein stability index (pdr5∆): 2.76 ± 0.14
protein stability index (san1∆): 1.97 ± 0.16
protein stability index (ubr1∆): 2.5 ± 0.21

GSTFKVNQEFIFEAISL [YJL039C/NUP192]
protein stability index (doa10∆): 2.33 ± 0.1
protein stability index (pdr5∆): 2.31 ± 0.12
protein stability index (san1∆): 1.43 ± 0.15
protein stability index (ubr1∆): 1.49 ± 0.079

GTANNNSNTTNQNSSTG [YJL041W/NSP1]
protein stability index (doa10∆): 3.19 ± 0.064
protein stability index (pdr5∆): 3.37 ± 0.075
protein stability index (san1∆): 3.25 ± 0.042
protein stability index (ubr1∆): 3.09 ± 0.061

GTCNGDITTSIMDNFLE [RPN1]
protein stability index (doa10∆): 2.77 ± 0.054
protein stability index (pdr5∆): 2.85 ± 0.057
protein stability index (san1∆): 2.86 ± 0.056
protein stability index (ubr1∆): 2.82 ± 0.068

GTFTADYSKPNLPPHYA [SSN2]
protein stability index (doa10∆): 2.23 ± 0.055
protein stability index (pdr5∆): 2.28 ± 0.049
protein stability index (san1∆): 2.16 ± 0.068
protein stability index (ubr1∆): 2.15 ± 0.039

GTGLFGQQTAQPQQSTI [YGR119C/NUP57]
protein stability index (doa10∆): 2.76 ± 0.063
protein stability index (pdr5∆): 3.13 ± 0.046
protein stability index (san1∆): 2.85 ± 0.051
protein stability index (ubr1∆): 3.19 ± 0.058

GTLDKNSQTVSGTPITQ [SNF2]
protein stability index (doa10∆): 2.83 ± 0.055
protein stability index (pdr5∆): 2.71 ± 0.055
protein stability index (san1∆): 2.69 ± 0.052
protein stability index (ubr1∆): 2.65 ± 0.044

GTLWAHVLKTVDYGGAE [SNU114]
protein stability index (doa10∆): 1.44 ± 0.084
protein stability index (pdr5∆): 1.32 ± 0.057
protein stability index (san1∆): 1.65 ± 0.16
protein stability index (ubr1∆): 1.36 ± 0.057

GTQQSNMYTSTQKTELE [SIR4]
protein stability index (doa10∆): 2.96 ± 0.049
protein stability index (pdr5∆): 3.12 ± 0.047
protein stability index (san1∆): 2.95 ± 0.048
protein stability index (ubr1∆): 3 ± 0.053

GTYIQERNPSQRPQRRY [RPS10B]
protein stability index (doa10∆): 3.01 ± 0.052
protein stability index (pdr5∆): 3.1 ± 0.042
protein stability index (san1∆): 3.09 ± 0.033
protein stability index (ubr1∆): 3.23 ± 0.036

GVANTDTAGEESQQQDE [SWI3]
protein stability index (doa10∆): 3.45 ± 0.1
protein stability index (pdr5∆): 3.55 ± 0.085
protein stability index (san1∆): 3.33 ± 0.062
protein stability index (ubr1∆): 3.43 ± 0.086

GVDDQILATNSLRILAK [YJL039C/NUP192]
protein stability index (doa10∆): 3.14 ± 0.13
protein stability index (pdr5∆): 3.08 ± 0.08
protein stability index (san1∆): 3.12 ± 0.069
protein stability index (ubr1∆): 3.24 ± 0.076
